Data published in US20240317834A1, “COMPOSITIONS AND METHODS FOR NEUROLOGICAL DISEASES” (CODA BIOTHERAPEUTICS, INC., priority 2020, published 2024).

System: Lenti-X 293T cells
Test: YFP fluorescence quenching anion reporter plate reader assay of engineered receptors stimulated with acetylcholine or a non-native ligand
Type: cell-based
Conditions: for percent quench of YFP fluorescence, 1 mM ach: acetylcholine 1 mM; for percent quench of YFP fluorescence, 3 mM ach: acetylcholine 3 mM
In short: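 Lenti-X 293T cells carrying a YFP anion reporter were transiently transfected with channel DNA and assayed the next day in HEPES-buffered ECS at pH 7.2. Ligand (acetylcholine or non-native ligand) was added in NaI-substituted ECS. Percent quench was the mean of the last 10 s relative to the 15 s pre-addition baseline.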

| Molecule | YFP fluorescence quenching using CNL001 (1 nM CNL001, first column) [%] | YFP fluorescence quenching using CNL001 (1 nM CNL001, second column) [%] | YFP fluorescence quenching using Varenicline (3 nM var, first column) | YFP fluorescence quenching using Varenicline (3 nM var, second column) | YFP fluorescence quenching using CNL001 (10 nM CNL001, first column) [%] | YFP fluorescence quenching using CNL001 (10 nM CNL001, second column) [%] | YFP fluorescence quenching using Varenicline (30 nM var, first column) | YFP fluorescence quenching using Varenicline (30 nM var, second column) | YFP fluorescence quenching using CNL001 (50 nM CNL001, first column) [%] | YFP fluorescence quenching using CNL001 (50 nM CNL001, second column) [%] | YFP fluorescence quenching using ABT-126 (50 nM abt) [%] | YFP fluorescence quenching using CNL001 (100 nM CNL001, first column) [%] | YFP fluorescence quenching using CNL001 (100 nM CNL001, second column) [%] | YFP fluorescence quenching using CNL002 (100 nM CNL002) [%] | YFP fluorescence quenching using ABT-126 (100 nM abt) [%] | YFP fluorescence quenching using ABT-126 (300 nM abt) [%] | YFP fluorescence quenching using Varenicline (300 nM var, first column) | YFP fluorescence quenching using Varenicline (300 nM var, second column) | YFP fluorescence quenching using Varenicline (500 nM var, first column) | YFP fluorescence quenching using Varenicline (500 nM var, second column) | further results |
| --- | --- | --- | --- | --- | --- | --- | --- | --- | --- | --- | --- | --- | --- | --- | --- | --- | --- | --- | --- | --- | --- |
| CODA1157: engineered chimeric LGIC receptor, Q139E, S172D in SEQ ID NO: 33 (protein, synthetic sequence of chimeric LGIC) MRCSPGGVWLALAASLLHVSLQGEFQRKLYKELVKNYNPLERPVANDSQPLTVYFSLSLLQIMDVDEKNQVLTTNIWLQMSWTDHYLQWNVSEYPGVKTVRFPDGQIWKPDILLYNSADERFDATFHTNVLVNSSGHCEYLPPGIFKSSCPMDLKNFPMDVQTCKLKFGSWDYGGWSLDLQMQEADISGYIPNGEWDLVGIPGKRSERFYECCKEPYPDVTFTVTMRRRMGYYLIQMYIPSLLIVILSWISFWINMDAAPARVGLGITTVLTMTTQSSGSRASLPKVSYVKAIDIWMAVCLLFVFSALLEYAAVNFVSRQHKELLRFRRKRRHHKSPMLNLFQEDEAGEGRFNFSAYGMGPACLQAKDGISVKGANNSNTTNPPPAPSKSPEEMRKLFIQRAKKIDKISRIGFPMAFLIFNMFYWIIYKIVRREDVHNQ | 68.362 | 69.495 | −0.225 | −1.954 | 75.078 | 74.193 | 1.269 | 5.972 | 77.481 | 77.205 | −26.77 | 77 | 77.042 | 80.62 | −24.64 | −10.64 | 6.84 | 5.943 | 8.717 | 6.41 | YFP fluorescence quenching using CNL001 (1 uM CNL001, first column): 78.2%; YFP fluorescence quenching using CNL001 (1 uM CNL001, second column): 76.244%; YFP fluorescence quenching using CNL002 (1 uM CNL002): 81.32%; YFP fluorescence quenching using ABT-126 (1 uM abt): 19.57%; YFP fluorescence quenching using Varenicline (1 uM var, first column): 5.635; YFP fluorescence quenching using Varenicline (1 uM var, second column): 7.068; YFP fluorescence quenching using ABT-126 (10 uM abt): 55.64%; percent quench of YFP fluorescence, 10 uM ach (acetylcholine 10 uM): −36.89%; percent quench of YFP fluorescence, 30 uM ach (acetylcholine 30 uM): −37.78%; percent quench of YFP fluorescence, 100 uM ach (acetylcholine 100 uM): −25.67%; percent quench of YFP fluorescence, 300 uM ach (acetylcholine 300 uM): −18.94%; percent quench of YFP fluorescence, 1 mM ach: 16.38%; percent quench of YFP fluorescence, 3 mM ach: 45.71% |
| CODA1173: engineered chimeric LGIC receptor, S172D, Y210W in SEQ ID NO: 33 (protein, synthetic sequence of chimeric LGIC) MRCSPGGVWLALAASLLHVSLQGEFQRKLYKELVKNYNPLERPVANDSQPLTVYFSLSLLQIMDVDEKNQVLTTNIWLQMSWTDHYLQWNVSEYPGVKTVRFPDGQIWKPDILLYNSADERFDATFHTNVLVNSSGHCQYLPPGIFKSSCPMDLKNFPMDVQTCKLKFGSWDYGGWSLDLQMQEADISGYIPNGEWDLVGIPGKRSERFWECCKEPYPDVTFTVTMRRRMGYYLIQMYIPSLLIVILSWISFWINMDAAPARVGLGITTVLTMTTQSSGSRASLPKVSYVKAIDIWMAVCLLFVFSALLEYAAVNFVSRQHKELLRFRRKRRHHKSPMLNLFQEDEAGEGRFNFSAYGMGPACLQAKDGISVKGANNSNTTNPPPAPSKSPEEMRKLFIQRAKKIDKISRIGFPMAFLIFNMFYWIIYKIVRREDVHNQ | 16.321 | 30.264 | 9.211 | 7.193 | 61.978 | 65.343 | 7.821 | 9.078 | 73.006 | 74.903 | 5.15 | 76 | 76.759 | 70.15 | 25.08 | 66.86 | 6.933 | 8.36 | 5.501 | 7.04 | YFP fluorescence quenching using CNL001 (1 uM CNL001, first column): 76.928%; YFP fluorescence quenching using CNL001 (1 uM CNL001, second column): 76.619%; YFP fluorescence quenching using CNL002 (1 uM CNL002): 77.33%; YFP fluorescence quenching using ABT-126 (1 uM abt): 66.94%; YFP fluorescence quenching using Varenicline (1 uM var, first column): 7.174; YFP fluorescence quenching using Varenicline (1 uM var, second column): 5.185; YFP fluorescence quenching using ABT-126 (10 uM abt): 78.67%; percent quench of YFP fluorescence, 1 mM ach: −6.12%; percent quench of YFP fluorescence, 3 mM ach: 11.31% |
